In article PMC3526665 (Protein and peptide letters, 2010):

Target: the molecule itself
Test: SEC

B1: cytoplasmic domain of QseC (QseC-CD) (domain or fragment, E. coli)
chain: RERRFTSDAAHELRSPLTALKVQTEVAQLSDDDPQARKKALLQLHSGIDRATRLVDQLLTLSRLDSLDNLQDVAEIPLEDLLQSSVMDIYHTAQQAKIDVRLTLNAHSIKRTGQPLLLSLLVRNLLDNAVRYSPQGSVVDVTLNADNFIVRDNGPGVTPEALARIGERFYRPPGQTATGSGLGLSIVQRIAKLHGMNVEFGNAEQGGFEAKVSWLE
stoichiometry N: 2
